Assay results taken from patent US20150374663A1.
Ends that are not written are not given here.

Assays:
[1] = biological target: type V tartrate-resistant acid phosphatase (TRAP) protein, immobilised on CM5 sensor chip; assay: SPR, TRAP amine-coupled to CM5 chip, initial rate analysis of sensorgrams
[2] = biological target: type V tartrate-resistant acid phosphatase (TRAP) protein, immobilised on CM5 sensor chip; assay: SPR, TRAP-functionalized surface; upper end of the range told of the peptide-functionalized polymers, tied to the 5% polymer through Table 1
[3] = biological target: type V tartrate-resistant acid phosphatase (TRAP) protein, immobilised on CM5 sensor chip; assay: SPR, TRAP-functionalized surface, binding curve fit (n = 2, Ave. ± StDev)
[4] = biological target: type V tartrate-resistant acid phosphatase (TRAP) protein, immobilised on CM5 sensor chip; assay: SPR, TRAP-functionalized surface; lower end of the range told of the peptide-functionalized polymers, tied to the 20% polymer through Table 1

Binder	Kd [1] [µM]	Kd [3] [µM]	other results
TPLSYLKGLVTVG-OH (not fully specified (N-terminus); also: RAFT copolymer with PEG methyl ether methacrylate (300 Da), about 3 peptides per chain) [5% TBP-functionalized PEG polymer of Table 4, M:CTA:I 125:1:0.1, Mn 17.1 kDa]	70		
TPLSYLKGLVTVG-OH (not fully specified (N-terminus); also: RAFT random copolymer with PEG monomethyl ether methacrylate) [5% peptide monomer TBP-functionalized PEG polymer of Table 1 (Mn 103900 Da, 3.9% peptide incorporated), listing 1 of 3 here]		21.7	Kd [2]: 7.1 to 21 µM
TPLSYLKGLVTVG-OH (not fully specified (N-terminus); also: RAFT copolymer with PEG methyl ether methacrylate (300 Da), about 5 peptides per chain) [5% TBP-functionalized PEG polymer of Table 4, M:CTA:I 250:1:0.1, Mn 42.3 kDa]	80		
TPLSYLKGLVTVG-OH (not fully specified (N-terminus); also: RAFT copolymer with PEG methyl ether methacrylate (300 Da), about 11 peptides per chain) [5% TBP-functionalized PEG polymer of Table 4, M:CTA:I 600:1:0.1, Mn 98.2 kDa]	140		

The next lines start with results.

Kd [1] [µM]	Kd [3] [µM]	Binder	other results
	7.5	TPLSYLKGLVTVG-OH (not fully specified (N-terminus); also: RAFT random copolymer with PEG monomethyl ether methacrylate) [20% peptide monomer TBP-functionalized PEG polymer of Table 1 (Mn 26700 Da, 17.1% peptide incorporated), listing 2 of 3 here]	Kd [4]: 7.1 to 21 µM
	12.7	TPLSYLKGLVTVG-OH (not fully specified (N-terminus); also: RAFT random copolymer with PEG monomethyl ether methacrylate) [10% peptide monomer TBP-functionalized PEG polymer of Table 1 (Mn 69000 Da, 7.5% peptide incorporated), listing 3 of 3 here]	
70		TPLSYLKGLVTVG-OH (not fully specified (N-terminus); also: RAFT copolymer with PEG methyl ether methacrylate (300 Da), about 12 peptides per chain) [20% TBP-functionalized PEG polymer of Table 4, M:CTA:I 500:1:0.1, Mn 32.7 kDa]	
